Data as given in the supplement of paper PMC10567573.

B1: DYRK1B (parent)
chain: YQGPGTRRLQEVLGVQTGGPGGRR

Variants of: B1
Test: protein stability index of a GFP-peptide fusion (GPS, HEK-293T) (PSI 1-6); higher = more stable
Conditions: c terminus: a fixed tail appended
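Note: lentivirally expressed fusions sorted by FACS into six bins by GFP to DsRed ratio, PSI derived from sequencing read proportions per bin multiplied by bin number.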

| Variant | protein stability index |
| --- | --- |
| YQGPGTRRLTEVLGVQTGGPGGRR [Q10T] | 3.39 |
| YQGPGTRRLVEVLGVQTGGPGGRR [Q10V] | 2.52 |
| YQGPGTRRLYEVLGVQTGGPGGRR [Q10Y] | 2.25 |
| YQGPGTRRLQAVLGVQTGGPGGRR [E11A] | 2.57 |
| YQGPGTRRLQCVLGVQTGGPGGRR [E11C] | 2.44 |
| YQGPGTRRLQDVLGVQTGGPGGRR [E11D] | 3.39 |
| YQGPGTRRLQFVLGVQTGGPGGRR [E11F] | 1.51 |
| YQGPGTRRLQGVLGVQTGGPGGRR [E11G] | 3.78 |
| YQGPGTRRLQHVLGVQTGGPGGRR [E11H] | 2.43 |
| YQGPGTRRLQIVLGVQTGGPGGRR [E11I] | 1.97 |
| YQGPGTRRLQKVLGVQTGGPGGRR [E11K] | 2.3 |
| YQGPGTRRLQLVLGVQTGGPGGRR [E11L] | 2.28 |
| YQGPGTRRLQMVLGVQTGGPGGRR [E11M] | 2.81 |
| YQGPGTRRLQNVLGVQTGGPGGRR [E11N] | 2.98 |
| YQGPGTRRLQPVLGVQTGGPGGRR [E11P] | 2.73 |
| YQGPGTRRLQQVLGVQTGGPGGRR [E11Q] | 2.68 |
| YQGPGTRRLQRVLGVQTGGPGGRR [E11R] | 2.88 |
| YQGPGTRRLQSVLGVQTGGPGGRR [E11S] | 3 |
| YQGPGTRRLQTVLGVQTGGPGGRR [E11T] | 3.31 |
| YQGPGTRRLQVVLGVQTGGPGGRR [E11V] | 2.56 |
| YQGPGTRRLQWVLGVQTGGPGGRR [E11W] | 1.55 |
| YQGPGTRRLQYVLGVQTGGPGGRR [E11Y] | 2.97 |
| YQGPGTRRLQEALGVQTGGPGGRR [V12A] | 2.84 |
| YQGPGTRRLQECLGVQTGGPGGRR [V12C] | 3.26 |

| Variant | protein stability index |
| --- | --- |
| YQGPGTRRLQEDLGVQTGGPGGRR [V12D] | 4.34 |
| YQGPGTRRLQEELGVQTGGPGGRR [V12E] | 3.66 |
| YQGPGTRRLQEFLGVQTGGPGGRR [V12F] | 2.94 |
| YQGPGTRRLQEGLGVQTGGPGGRR [V12G] | 3.32 |
| YQGPGTRRLQEHLGVQTGGPGGRR [V12H] | 3.66 |
| YQGPGTRRLQEILGVQTGGPGGRR [V12I] | 3.58 |
| YQGPGTRRLQEKLGVQTGGPGGRR [V12K] | 2.33 |
| YQGPGTRRLQELLGVQTGGPGGRR [V12L] | 3.19 |
| YQGPGTRRLQEMLGVQTGGPGGRR [V12M] | 2.59 |
| YQGPGTRRLQENLGVQTGGPGGRR [V12N] | 3.81 |
| YQGPGTRRLQEPLGVQTGGPGGRR [V12P] | 3.69 |
| YQGPGTRRLQEQLGVQTGGPGGRR [V12Q] | 3.5 |
| YQGPGTRRLQERLGVQTGGPGGRR [V12R] | 2.91 |
| YQGPGTRRLQESLGVQTGGPGGRR [V12S] | 3.19 |
| YQGPGTRRLQETLGVQTGGPGGRR [V12T] | 3.75 |
| YQGPGTRRLQEWLGVQTGGPGGRR [V12W] | 2.92 |
| YQGPGTRRLQEYLGVQTGGPGGRR [V12Y] | 3.05 |
| YQGPGTRRLQEVAGVQTGGPGGRR [L13A] | 3.58 |
| YQGPGTRRLQEVCGVQTGGPGGRR [L13C] | 3.88 |
| YQGPGTRRLQEVDGVQTGGPGGRR [L13D] | 3.93 |
| YQGPGTRRLQEVEGVQTGGPGGRR [L13E] | 4.44 |
| YQGPGTRRLQEVFGVQTGGPGGRR [L13F] | 2.9 |
| YQGPGTRRLQEVGGVQTGGPGGRR [L13G] | 3.9 |
| YQGPGTRRLQEVHGVQTGGPGGRR [L13H] | 3.94 |

| Variant | protein stability index |
| --- | --- |
| YQGPGTRRLQEVIGVQTGGPGGRR [L13I] | 3.47 |
| YQGPGTRRLQEVKGVQTGGPGGRR [L13K] | 3.79 |
| YQGPGTRRLQEVMGVQTGGPGGRR [L13M] | 3.31 |
| YQGPGTRRLQEVNGVQTGGPGGRR [L13N] | 3.85 |
| YQGPGTRRLQEVPGVQTGGPGGRR [L13P] | 3.44 |
| YQGPGTRRLQEVQGVQTGGPGGRR [L13Q] | 3.89 |
| YQGPGTRRLQEVRGVQTGGPGGRR [L13R] | 3.61 |
| YQGPGTRRLQEVSGVQTGGPGGRR [L13S] | 4.07 |
| YQGPGTRRLQEVTGVQTGGPGGRR [L13T] | 3.97 |
| YQGPGTRRLQEVVGVQTGGPGGRR [L13V] | 3.68 |
| YQGPGTRRLQEVWGVQTGGPGGRR [L13W] | 1.67 |
| YQGPGTRRLQEVYGVQTGGPGGRR [L13Y] | 3.63 |
| YQGPGTRRLQEVLAVQTGGPGGRR [G14A] | 2.92 |
| YQGPGTRRLQEVLCVQTGGPGGRR [G14C] | 1.55 |
| YQGPGTRRLQEVLDVQTGGPGGRR [G14D] | 4.18 |
| YQGPGTRRLQEVLEVQTGGPGGRR [G14E] | 3.73 |
| YQGPGTRRLQEVLFVQTGGPGGRR [G14F] | 2.66 |
| YQGPGTRRLQEVLHVQTGGPGGRR [G14H] | 3.62 |
| YQGPGTRRLQEVLIVQTGGPGGRR [G14I] | 2.14 |
| YQGPGTRRLQEVLKVQTGGPGGRR [G14K] | 2.9 |
| YQGPGTRRLQEVLLVQTGGPGGRR [G14L] | 2.75 |
| YQGPGTRRLQEVLMVQTGGPGGRR [G14M] | 3.25 |
| YQGPGTRRLQEVLNVQTGGPGGRR [G14N] | 4.25 |
| YQGPGTRRLQEVLPVQTGGPGGRR [G14P] | 4.17 |

| Variant | protein stability index |
| --- | --- |
| YQGPGTRRLQEVLQVQTGGPGGRR [G14Q] | 3.72 |
| YQGPGTRRLQEVLRVQTGGPGGRR [G14R] | 3.37 |
| YQGPGTRRLQEVLSVQTGGPGGRR [G14S] | 3.14 |
| YQGPGTRRLQEVLTVQTGGPGGRR [G14T] | 2.66 |
| YQGPGTRRLQEVLVVQTGGPGGRR [G14V] | 3.14 |
| YQGPGTRRLQEVLWVQTGGPGGRR [G14W] | 2.11 |
| YQGPGTRRLQEVLYVQTGGPGGRR [G14Y] | 2.98 |
| YQGPGTRRLQEVLGAQTGGPGGRR [V15A] | 3.69 |
| YQGPGTRRLQEVLGCQTGGPGGRR [V15C] | 2.82 |
| YQGPGTRRLQEVLGDQTGGPGGRR [V15D] | 3.23 |
| YQGPGTRRLQEVLGEQTGGPGGRR [V15E] | 3.44 |
| YQGPGTRRLQEVLGFQTGGPGGRR [V15F] | 3.62 |
| YQGPGTRRLQEVLGGQTGGPGGRR [V15G] | 3.63 |
| YQGPGTRRLQEVLGIQTGGPGGRR [V15I] | 2.07 |
| YQGPGTRRLQEVLGKQTGGPGGRR [V15K] | 3.01 |
| YQGPGTRRLQEVLGLQTGGPGGRR [V15L] | 2.68 |
| YQGPGTRRLQEVLGMQTGGPGGRR [V15M] | 2.24 |
| YQGPGTRRLQEVLGNQTGGPGGRR [V15N] | 3.81 |
| YQGPGTRRLQEVLGQQTGGPGGRR [V15Q] | 4 |
| YQGPGTRRLQEVLGRQTGGPGGRR [V15R] | 3.34 |
| YQGPGTRRLQEVLGSQTGGPGGRR [V15S] | 3.59 |
| YQGPGTRRLQEVLGTQTGGPGGRR [V15T] | 2.96 |
